Our source for the binding result and OD450 values is publication PMC8130932 (PLoS Pathogens, 2021).

The target of assay [1] is T1, SARS-CoV-2 spike glycoprotein, full-length, prefusion-stabilised, on MDCK-SIAT1 cells (SARS-CoV-2, reference sequence, UniProt P0DTC2, 986KV987 to 986PP987 | 682RRAR685 to 682GSAG685).
T1 construct: also called MDCK-Spike
As to the kind of experiment: flow cytometry on cells. To be noted: one partner purified. For orientation: In flow cytometry, cells or beads pass a laser one at a time.

Assay [2] deals with T2, SARS-CoV-2 spike glycoprotein S1+S2 extracellular domain (SARS-CoV-2, reference sequence, UniProt P0DTC2).
T2 construct: also called full-length spike glycoprotein ectodomain
As to the kind of experiment: ELISA. Background: An ELISA detects its analyte on a solid surface through an enzyme-linked reagent.

B1: FI 1C (antibody, V domains shown)
VH: EVQLVESGGGLVKPGGSLRLSCAASGFTFSDYYMSWIRQAPGKGLEWVSYISSSGSTIYYADSVKGRFTISRDNAKNSLYLQMNSLRAEDTAVYYCARRSNRFLIAFDIWGQGTMVTVSS
VL: QSALTQPASVSGSPGQTITISCTGTSSDVGGYNYVSWYQQHPGKAPKLMIYEVSNRPSGVSNRFSGSKSGNTASLTISGLQAEDEADYYCSSYTSSSTLVVFGGGTKLTVP
notes: source: HEK293T, transfected; culture supernatant or purified
On to B1, for which the binding result in assay [1] is on record as “binds”. In assay [2], the OD450 worked out at 1.88 OD450.

B2: FI 4A (antibody, V domains shown)
VH: EVQLVESGGGLVKPGGSLRLSCAASGFTFSRFSMNWVRQAPGKGLEWVSSISSSGSYIYFADSVKGRFTISRDNAKNSLYLQMNSLRAEDTAIYYCATYLFGDSHTYWGQGTLVTVSS
VL: QSVLTQPHSVSESPGKTVTISCTGSSGSIASNYVQWYQQRPGSAPTTVIYEDNQRPSGVPDRFSGSIDSSSNSASLTISGLKTEDEADYYCQSYDSSNLHWVFGGGTKLTVL
notes: as for B1
B2: in assay [1], the binding result is “binds”. The molecule also displayed an OD450 in assay [2] of 1.68 OD450.

B3: EY 6A (antibody, V domains shown)
VH: EVQLVESGGGVVQPGRSLRLSCAASAFTFSSYDMHWVRQAPGKGLEWVAVISYDGSNKYYADSVKGRFTISRDNSKNTLYLQMNSLRAEDTAVYYCAKDGGKLWVYYFDYWGQGTLVTVSS
VL: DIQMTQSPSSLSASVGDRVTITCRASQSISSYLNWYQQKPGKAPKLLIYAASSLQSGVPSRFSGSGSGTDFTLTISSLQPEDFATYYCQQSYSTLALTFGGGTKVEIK
notes: as for B1
As to B3, the binding result in assay [1] is “binds”. The OD450 in assay [2] turned out to be 1.75 OD450.

B4: FN 2C (antibody, V domains shown)
VH: EVQLLESGGGVVQPGRSLRLSCAASGFNFNNYGMHWVRQAPGKGLEWVATISYEGSKKFYVDSVKGRFTISKDNSKNTLYLQMNSLRVDDTAFYYCAKRREIFWLGEPPLSDAFDFWGQGTMVTVSS
VL: QSVLTQPPSVSGAPGQRVTISCTGSGSNIGAGYDVHWYQFLPGTAPQLLIYGNNNRPSGVPDRFSGSKSGTSASLAITGLQAEDEADYYCQSYDSSLSGSVFGGGTKLTVL
notes: as for B1
Regarding B4, the binding result in assay [1] is reported as “binds”. This molecule yielded an OD450 in assay [2] of 1.77 OD450.

B5: FM 7B (antibody, V domains shown)
VH: EVQLVQSGAEVKKPGASVKVSCKASGYTFTSYAMHWVRQAPGQRLEWMGWINTGNGNTKYSQKFQGRVTITRDTSASTAYMELSSLRSEDTAVYYCARDPTYCSSTSCYPFSWFDPWGQGTLVTVSS
VL: NFMLTQPPSVSVAPGQTARITCGGNNIGSKSVHWYQQKPGQAPVLVVYDDSDRPSGIPERFSGSNSGNTATLTISRVEAGDEADYYCQVWDSTGDHSWVFGGGTKLTVL
notes: as for B1
With B5, the binding result in assay [1] is listed as “binds”. The molecule further gave an OD450 in assay [2] of 1.8 OD450.

B6: EZ 7A (antibody, V domains shown)
VH: EVQLVESGAEVKKPGESLKISCKGSGYSFTSYWIGWVRQMPGKGLEWMGIIYPGDSDTRYSPSFQGQVTISADKSISTAYLQWSSLKASDTAMYYCARGWVYRGFPYYGMDVWGQGTMVTVSS
VL: QSALTQPRSVSGSPGQSVTISCTGTSSDVGGYNYVSWYQQHPGKAPKLMIYDVSKRPSGVPDRFSGSKSGNTASLTISGLQAEDEADYYCCSYAGSYTLVFGGGTKLTVL
notes: as for B1
Take B6: in assay [1], the binding result was “binds”. In assay [2], this molecule showed an OD450 of 1.66 OD450.

B7: FB 9D (antibody, V domains shown)
VH: QVQLVESGAEVKKPGESLKISCQGSGYRFNSYWIAWVRQMPGKGLEWMGSIFPTDSDVRYNPSFQGQVTISADKSISFAYLQWSSLKASDTAIYYCARHWASMVRGVIRASHYYGMDVWGQGTTVTVSS
VL: QPVLTQPPSASGSPGQSVTISCSGASSDIGKYNYVSWYQQLPGKAPKLLIYEVTKRPSGVPDRFSGSKSGNTASLTVSGLQADDEADYYCSSYAFGGSDTRVFGGGTKLTVL
notes: as for B1
As to B7, the binding result in assay [1] is “binds”. The molecule also showed an OD450 in assay [2] of 1.43 OD450.
